Best fit- Bmax and ELISA A450 data for 2 substances are collected here from US20230203159A1.

Assay [1] addresses human CD3 receptor on T cell surface (Jurkat cells, human CD4 T cells) (human) (UniProt P07766). Put plainly: flow cytometry on Jurkat cells, one site saturation fit.
The target of assay [2] is Human CD3 epsilon (CD3epsilon) protein (His Tag) (human) (UniProt P07766). Put plainly: ELISA, protein coated on plate. (An ELISA detects its analyte on a solid surface through an enzyme-linked reagent.)
Assay [3] deals with mouse CD3epsilon protein (mouse) (UniProt P22646). Put plainly: ELISA, protein coated on plate.
Assay [4] addresses Cynomolgus Monkey CD3epsilon protein (Cynomolgus monkey) (UniProt Q95LI5). Put plainly: ELISA, protein coated on plate.

Chain of human CD3 receptor on T cell surface (Jurkat cells, human CD4 T cells) (human) (P07766 23-207): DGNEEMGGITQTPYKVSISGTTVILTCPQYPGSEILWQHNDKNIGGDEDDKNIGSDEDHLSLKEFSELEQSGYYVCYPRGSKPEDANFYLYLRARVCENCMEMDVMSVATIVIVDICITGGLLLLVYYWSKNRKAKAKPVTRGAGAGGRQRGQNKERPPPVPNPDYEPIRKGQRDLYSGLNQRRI
Chain of mouse CD3epsilon protein (mouse) (P22646 22-108 limits assumed): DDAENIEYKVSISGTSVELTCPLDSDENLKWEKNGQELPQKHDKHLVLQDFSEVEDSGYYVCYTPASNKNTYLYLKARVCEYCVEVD
Chain of Cynomolgus Monkey CD3epsilon protein (Cynomolgus monkey) (Q95LI5 22-117 limits assumed): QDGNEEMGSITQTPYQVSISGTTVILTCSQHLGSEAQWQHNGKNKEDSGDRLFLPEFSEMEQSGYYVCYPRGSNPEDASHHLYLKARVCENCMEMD
Chain of Human CD3 epsilon (CD3epsilon) protein (His Tag) (human) (P07766 23-126): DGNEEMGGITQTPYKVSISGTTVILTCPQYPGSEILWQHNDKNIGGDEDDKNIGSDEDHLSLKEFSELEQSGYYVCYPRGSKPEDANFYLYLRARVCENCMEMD

As to Benchmark antibody OKT3, in assay [1], the Best fit- Bmax stood at 9.41e-11.
Negative Control: the ELISA A450 in assay [2] was determined as 0.046 A450; in assay [3], 0.179 A450; in assay [4], 0.046 A450.
